Experimental data from article PMC10626271 (FEBS Open Bio, 2023).

Assays:
[1] = biological target: the molecule itself; assay: SEC; Superdex 75 increase 10/300 of Ni-NTA purified Trx-ICH_(GLUT4)
[2] = biological target: T1, C-terminal domain of ASPL (ASPL-C, residues 313-553) (human, UniProt Q9BZE9 313-553); assay: SPR; ASPL-C immobilised on CM5 chip by amine coupling (1000 RU); analytes 0.6 to 83 μM in 10 mM HEPES, 150 mM NaCl, 0.005% Tween20, pH 7.4; BIAcore 3000, duplicates; one-site specific binding fit of the response against concentration; no saturation reached; settings: both partners purified
T1 construct: the 26 kDa printed for ASPL-C in the cross-linking experiment fits the chain without GST; The cited crystal structure covers residues 317-499; source: E. coli BL21 DE3 Rosetta2, purified (glutathione-Sepharose 4B, Superdex 75 SEC)
T1 sequence (looked up): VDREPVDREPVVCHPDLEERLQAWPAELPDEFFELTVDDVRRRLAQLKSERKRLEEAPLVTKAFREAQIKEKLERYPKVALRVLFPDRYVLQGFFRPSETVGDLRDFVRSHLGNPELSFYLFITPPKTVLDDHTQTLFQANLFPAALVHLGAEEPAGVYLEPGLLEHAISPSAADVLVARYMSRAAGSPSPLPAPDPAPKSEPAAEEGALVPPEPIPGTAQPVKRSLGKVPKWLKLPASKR

Kd [2]: 68 µM
B1: Thioredoxin fused C-terminally with human GLUT4 intracellular helical bundle (residues 225-271, I232C/K264C) (domain or fragment, UniProt P14672 225-271, looked up)
chain: ESPRYLYCIQNLEGPARKSLKRLTGWADVSGVLAELKDECRKLERER
notes: human GLUT4 intracellular helical bundle (ICH) between TM6 and TM7, residues 225-271, with I232C and K264C to form a stabilising disulphide bond; Synthetic gene (GenScript) in pET24a; 18 kDa monomer; a 36 kDa peak was also seen on SEC; also called Trx-ICH_(GLUT4); ICH_(GLUT4); source: E. coli TUNER (DE3), purified (Ni-NTA, Superdex 75 SEC; monomer peak used); not shown: Trx (thioredoxin), …
stoichiometry N [1]: 2
